Measurements as given in PMC6778109.

Molecular target: Edc3 IDR
Assay: methyl TROSY NMR titration

| Substance | other: chemical shift perturbation Δδ of the introduced methyl group (+ 4x Edc3 IDR) | other: chemical shift perturbation Δδ of the introduced methyl group (+ 6x Edc3 IDR) |
| --- | --- | --- |
| Edc3 YjeF_N domain (from UniProt O94752) W393M | 0.104 ppm |  |
| Edc3 YjeF_N domain (from UniProt O94752) V253I | 0.391 ppm |  |
| Edc3 YjeF_N domain (from UniProt O94752) K392M |  | 0.087 ppm |
| Edc3 YjeF_N domain (from UniProt O94752) Q447I |  | 0.078 ppm |
